No end group written: not given here.

The subject of test [1] is GmRLK18-1 LRR domain. The test is described as follows: Far Western analysis of total root proteins probed with the LRR domain. Particulars: 2 D gels of total root proteins of SCN inoculated plants, identified by MS/MS; cyclophilin at 10 dai, methionine synthase at 28 dai. It is filed as binding, Glycine max.
From the text: For Far-Westerns the LRR domain was used as a probe to filters transferred from 1 or 2 D gels. As the secondary probe, anti-his antibody conjugated to HRP (1–10,000 dilution; Invitrogen, Carlsbad CA) was used. Spots and bands were picked manually and the proteins in them digested with trypsin and identified by direct infusion MS/MS following the methods in [31].
The target of test [2] is GmRLK18-1 LRR domain expressed in E. coli (soybean (Glycine max)). The experiment in a line: native gel or EMSA; 12% (w/v) non-denatured PAGE of purified, refolded GmRLK18-1-LRR from E. coli; bands eluted and run again on SDS-PAGE.
For test [3] the target is unchanged. The experiment in a line: fluorescence polarisation; FITC-labelled peptides in 20 mM phosphate buffer pH 6.9 in a cuvette, 5 nM aliquots, increase in polarisation; baseline of non-CLE and non-LRR peptides subtracted; Kd from double reciprocal Scatchard plots; 3 repeats with 3 protein preparations; apparent for peptide L. (Polarisation of emitted light reports the rotation of a fluorescent probe.)

Test [4] addresses GmRLK08-1 LRR domain expressed in E. coli (soybean (Glycine max)). The test is described as above.

“cyclophilin: soybean root cyclophilin, 182 amino acids, matches gi 17981611, 19,392 d, pI 8.38”: the “binding to the LRR domain in Far Western (in words)” value in test [1] was “avidly bound to the LRR”.
For the molecule “GmRLK18-1 LRR domain expressed in E. coli (domain or fragment)”, the stoichiometry N in test [2] amounted to 2.
Take KRLSPSGPDPHHH (not fully specified (N-terminus); also: labeled with FITC) [CLE peptide N]: the Kd in test [3] stood at 30 nM; in test [4] it was 78 nM.
In the case of CTLSRLKTLDISNNALNGNLPATLSNLS (not fully specified (N-terminus); also: labeled with FITC) [LRR peptide L of GmRLK18-1], the Kd in test [3] stood at 36 nM; in test [4], 135 nM.
On to RAELDFNYMSKRRVPNGPDPIHNRRAGNSGR (not fully specified (N-terminus); also: labeled with FITC) [CLE peptide 36L], for which the Kd came out at 49 nM in test [3] and 51 nM in test [4].
In the case of SKRRVPNGPDPIHNR (not fully specified (N-terminus); also: labeled with FITC) [CLE peptide 36], the Kd stood at 14 nM in test [3] and 52 nM in test [4].
Consider DLPLAPADRLAGGPDPQHNVRAPPRKP (not fully specified (N-terminus); also: labeled with FITC) [CLE peptide 2L], for which the Kd in test [3] was 142 nM; in test [4], 338 nM.
The matching figures for AHEVPSGPNPISNR (not fully specified (N-terminus); also: labeled with FITC) [CLE peptide T]: 20 nM and 204 nM.
The matching figures for RLAPGGPDPQHN (not fully specified (N-terminus); also: labeled with FITC) [CLE peptide 2]: 45 nM and 96 nM.
Turning to KGLGLHEEELRTVPSGPDPLHHHVNPPRQPR (not fully specified (N-terminus); also: labeled with FITC) [CLE peptide 3L], the Kd came out at 65 nM in test [3] and 142 nM in test [4].
With RLAPEGPDPHHN (not fully specified (N-terminus); also: labeled with FITC) [CLE peptide 30], the Kd in test [3] came out at 44 nM; in test [4] it was 84 nM.
As to RTVPSGPDPLHH (not fully specified (N-terminus); also: labeled with FITC) [CLE peptide 3], the Kd in test [3] was 29 nM; in test [4], 50 nM.

By stoichiometry N is commonly meant a count of units in the complex or per binding partner.

For the origin of these results see publication PMC3626623, “Homo-dimerization and ligand binding by the leucine-rich repeat domain at RHG1/RFS2 underlying resistance to two soybean pathogens” (BMC Plant Biology, 2013).
